For experiment [1], the target named is recombinant full length SARS-CoV-2 spike protein (SARS-CoV-2) (UniProt P0DTC2).
The target of experiment [2] is FcγR on K562 cells (reported to express RNA for FcγRIIa and IIIa/b).

With “ACE2-CR3022 scFv-Fc (from UniProt Q9BYF1 18-740) (Fc fusion)”, in experiment [1], the EC50 (read off the curve) (usually the concentration at which the effect is half-maximal) stood at 0.09 nM.

For “CR3022 scFv-ACE2-Fc (from UniProt Q9BYF1 18-740) (Fc fusion)”, in experiment [1], the EC50 (read off the curve) worked out at 0.06 nM.

Consider “Inactive ACE2 (HH:NN) (18-740)-Fc (Fc fusion)”, for which the EC50 (read off the curve) in experiment [2] was 40 nM.

Values taken from patent publication US20230293647A1.
